From the supplement of paper PMC7877785
± gives the uncertainty stated by the source.

Assay: self-splicing fitness, log relative to wild type (ln ratio); higher = more splicing; Tetrahymena group I intron in knt gene, E. coli kanamycin selection, DiMSum; sequences stand for … in CUCUCU…GGAGGGAAAAGUUAUCAGGCAUGCACCUGGUAGCUAGUCUUUAAACCAAUAGAUUGCAUCGGUUUAAAAGGCAAGACCGUCAAAUUGCGGGAAAGGGGUCAACAGCCGUUCAGUACCAAGUCUCAGGGGAAACUUUGAGAUGGCCUUGCAAAGGGUAUGGUAAUAAGCUGACGGACAUGGUCCUAACCACGCAGCCAAGUCCUAAGUCAACAGAUCUUCUGUUGAUAUGGAUGCAGUUCACAGACUAAAUGUCGGUCGGGGAAGAUGUAUUCUUCUCAUAAGAUAUAGUCGGACCUCUCCUUAAUGGGAGCUAGCGGAUGAAGUGAUGCAACACUGGAGCCGCUGGGAACUAAUUUGUAUGCGAAAGUAUAUUGAUUAGUUUUGGAGUACUCGUGGUCG
Summary of the method: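 Library with all eight P1ex-region intron nucleotides randomised, intron inside the knt kanamycin-resistance gene on pET-22b(+), in E. coli BL21(DE3). Cells grew overnight at 37°C or 30°C on LB agar with or without 25 μg/mL kanamycin (plus 100 μg/mL carbenicillin, 50 μM IPTG, 0.2% rhamnose), in six replicate transformations. Pooled colonies were amplicon-sequenced on Illumina HiSeq 2500. DiMSum fitness is the error-weighted combination of wild-type-normalised replicate fold changes, kanamycin versus none.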

Sequence	self-splicing fitness (ln) (30 °C)	self-splicing fitness (ln) (37 °C)
CCCAAGCAAUAUUACGACAG	-4.22 ± 0.15	-2.39 ± 0.12
CCCAAGCAAUAUUACGACUA	-2.52 ± 0.17	-2.31 ± 0.18
CCCAAGCAAUAUUACGAGGA	-1.42 ± 0.078	-0.592 ± 0.074
CCCAAGCAAUAUUACGAUAA	-3.19 ± 0.14	-3.49 ± 0.2
CCCAAGCAAUAUUACGAUUC	-3.69 ± 0.25	-2.1 ± 0.26
CCCAAGCAAUAUUACGCACU	-3.57 ± 0.19	-2.72 ± 0.25
CCCAAGCAAUAUUACGCAGU	-3.15 ± 0.14	-2.32 ± 0.18
CCCAAGCAAUAUUACGCAUA	-3.47 ± 0.19	-2.49 ± 0.17
CCCAAGCAAUAUUACGCCAG	-2.9 ± 0.19	-3.07 ± 0.33
CCCAAGCAAUAUUACGCCUA	-2.65 ± 0.26	-2.8 ± 0.31
CCCAAGCAAUAUUACGCGCG	-3.78 ± 0.23	-2.24 ± 0.21
CCCAAGCAAUAUUACGCUCG	-3.17 ± 0.2	-2.14 ± 0.33
CCCAAGCAAUAUUACGGCAC	-4.31 ± 0.36	-2.5 ± 0.21
CCCAAGCAAUAUUACGGCAG	-3.73 ± 0.17	-1.65 ± 0.12
CCCAAGCAAUAUUACGGGCA	-3.96 ± 0.18	-1.82 ± 0.11
CCCAAGCAAUAUUACGGUUG	-3.99 ± 0.17	-2.52 ± 0.13
CCCAAGCAAUAUUACGUAGC	-2.5 ± 0.42	-2.74 ± 0.39
CCCAAGCAAUAUUACGUCUA	-4.2 ± 0.3	-2.92 ± 0.23
CCCAAGCAAUAUUACGUCUU	-3.41 ± 0.11	-2.25 ± 0.12
CCCAAGCAAUAUUACGUGGG	-3.29 ± 0.11	-2.82 ± 0.17
CCCCAGCAAUAUUACGAAAC	-3.12 ± 0.2	-1.89 ± 0.27
CCCCAGCAAUAUUACGACCU	-3.23 ± 0.15	-2.32 ± 0.23

Sequence	self-splicing fitness (ln) (30 °C)	self-splicing fitness (ln) (37 °C)
CCCCAGCAAUAUUACGAGGC	-3.53 ± 0.26	-3.1 ± 0.35
CCCCAGCAAUAUUACGAGUC	-3.78 ± 0.14	-3.03 ± 0.17
CCCCAGCAAUAUUACGCAAU	-2.96 ± 0.12	-1.34 ± 0.12
CCCCAGCAAUAUUACGCAUC	-3.84 ± 0.31	-2.68 ± 0.3
CCCCAGCAAUAUUACGCCAU	-2.14 ± 0.12	-2.32 ± 0.17
CCCCAGCAAUAUUACGCCCU	-4.24 ± 0.39	-1.98 ± 0.28
CCCCAGCAAUAUUACGCGUG	-4.14 ± 0.18	-2.76 ± 0.15
CCCCAGCAAUAUUACGCUAG	-3.68 ± 0.13	-2.86 ± 0.17
CCCCAGCAAUAUUACGGACC	-4.08 ± 0.35	-2.64 ± 0.26
CCCCAGCAAUAUUACGGAGA	-2.32 ± 0.12	-1.61 ± 0.15
CCCCAGCAAUAUUACGGCCC		-1.64 ± 0.47
CCCCAGCAAUAUUACGGGCU	-3.75 ± 0.17	-2.32 ± 0.17
CCCCAGCAAUAUUACGGGGG	-4.74 ± 0.16	-2.67 ± 0.12
CCCCAGCAAUAUUACGGUGG	-4.09 ± 0.2	-1.86 ± 0.11
CCCCAGCAAUAUUACGGUUG	-2.4 ± 0.087	-1.5 ± 0.1
CCCCAGCAAUAUUACGUAAC	-5 ± 0.27	-2.67 ± 0.18
CCCCAGCAAUAUUACGUGUC	-4.78 ± 0.2	-2.53 ± 0.15
CCCCAGCAAUAUUACGUGUG	-2.66 ± 0.084	-2.5 ± 0.11
CCCGAGCAAUAUUACGAACG		-1.84 ± 0.44
CCCGAGCAAUAUUACGAAGA	-2.86 ± 0.31	
CCCGAGCAAUAUUACGAAUU		-2.44 ± 0.35
